Assay: yeast display, Sf9 membrane polyspecificity reagent, FACS + sequencing; frameworks hold sequencing errors
How it was run: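 Using colony PCR, genes from sorted yeast display clones were amplified, then sequenced on MiSeq at 2 × 250 and filtered by CDR length. The clones had been stained with 10% biotinylated, detergent-solubilized Sf9 membrane reagent for 1 hour at 4 °C and sorted by FACS into low and high (top ~1%) gates on anti-HA and streptavidin fluorescence. Polyreactivity labels come from the gate of origin.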
For “QFQLVESGGGLVQAGGSLRLSCAASGRIFGGYAMGWYRQAPVKERELVAAIRDSGRTYYADSVKGRFTISRDNAKNTVYLQMNSLKQEDTAVYYFAADAHSTYAPFRWYDYCGQGTQVTVSS”, the “polyreactivity (PSR sort gate)” value was “low polyreactivity”.
In the case of “QFQLVESGGGLVQAGGSLRLSCAASGRIFRYYDMGWYRQAPGKERELVAAISFSGGSTYYADSVKGRFTISRDNAKNTVYLQMNSLKQEDTAVYYCAAGWRALYLSTYDYWGQGTQVTVSS”, the “polyreactivity (PSR sort gate)” value is reported as “high polyreactivity”.
With “QFQLVESGGGLVQAGGSLRLSCAASGRIFVYNDMVWYRQAPGKEREFVATITSSGGRTYYADSVKGRFTISRDNAKNTVYLQMNRLKPEDTAVYYCNKVGYSNLLGYDYWGQGTQVTVSS” the “polyreactivity (PSR sort gate)” value was “high polyreactivity”.
For “QFQLVESGGGLVQAGGSLRLSCAASGRIFYKYVMGWYRQAPGKERELVAAINRSGGTTYYADSVKGRFTISRDNAKNTVYLQMNSLKPEDTAVYYCNATLPDYWPYYYYQGGDDYWGQGTQVTVSS”, the “polyreactivity (PSR sort gate)” value was “low polyreactivity”.
For “QFQLVESGGGLVQAGGSLRLSCAASGRIFYSYAMGWYRQAPGKERELVAAISRSGTSTFYADSLKGRFTISRDNAKNTVYLQMNSLKPEDTAVYYCNAVISPYVIRSEYWGQGTQVTVSS”, the “polyreactivity (PSR sort gate)” value was “low polyreactivity”.
For “QFQLVESGGGLVQAGGSLRLSCAASGRIFYYYAMGWDRQAPGKERELVASINSVGTTTYADSVKGRFTISRDNAKNTVYLQMNSLKPEDTAVYYCARDTGSIYYDGYEYDYWGQGTQVTVSS”, the “polyreactivity (PSR sort gate)” value was “low polyreactivity”.
For “QFQLVESGGGLVQAGGSLRLSCAASGRTFVINAMGWYRQAPGKERELVAAISRGGSRTFYADSVKGLFTISRDTAKNTVYLQMNSLKPVDTAVYYCNAVAQSGRYDYWGQGTQVTVSS”, the “polyreactivity (PSR sort gate)” value was “high polyreactivity”.
With “QFQLVESGGGLVQAGGSLRLSCAASGRTLYGYAMGLYRQAPGKERELVAAISGSGTITYYADSVKGRFTISRDNAKNTVYLQMNSLKPEDTAVYYCNKRRAGQSRRVDSWGQGTQVTVSS” the “polyreactivity (PSR sort gate)” value was “high polyreactivity”.
In the case of “QFQLVESGGGLVQAGGSLRLSCAASGSIFISNAMGWYRQAPGKERDLVAAISWTSGSTYYADSVKGRFTISRDNAKNTVYLQMNSLKPVDTAFYYCAALGGAALDWGVVEVGYWGKGTQVTVSS”, the “polyreactivity (PSR sort gate)” value is reported as “low polyreactivity”.
For “QFQLVESGGGLVQAGGSLRLSCAASGSIFSVYTMGWYRQAPGKERELVAAISTGGGSTYYADSVKGRFTISRDNAKNTVYLQMNSLKPEDTAVYYCATDYGWAPSYWYDSCGQGTQVTVSS”, the “polyreactivity (PSR sort gate)” value was “low polyreactivity”.
In the case of “QFQLVESGGGLVQAGGSLRLSCAASGSIFTYNVMGWYRQAPRKERELVAAISDGDGSTYADSVKGRFTISRDNAKNTVYLQMNSLKPEDTAVYYCAAVDGRYLGGFNSRDGDWGQGTQVTVSS”, the “polyreactivity (PSR sort gate)” value is reported as “low polyreactivity”.
In the case of “QFQLVESGGGLVQAGGSLRLSCAASGSTFGYYAMGWYRQAPGKERELVAAISWSGDSTYYADSVKGRFSISRDNAKNTVYLQMNSLKPEDTAVYYCAAEVEYGYDYWGQGTQVTVSS”, the “polyreactivity (PSR sort gate)” value is reported as “high polyreactivity”.
In the case of “QFQLVESGGGLVQAGGSLRLSCAASGSTFKSYAMGWYRQAPGKEREFVAVITWSGGRTSYADSVKGRFTISRDNAKNTVYLQMNSLKPEDTAVYYCAAKAASRYRAFTYDYWGQGTQVTVSS”, the “polyreactivity (PSR sort gate)” value is reported as “low polyreactivity”.
In the case of “QFQLVESGGGLVQAGGSLRLSCAASGSTFPYYAMGWYRQAPGNERELVASIRKRGGGTYYADSVKGRFTISRDNAKNTVYFQMNILKPEDTAVYYCAVRVYQFRYTGYDYWGQGTQVTVSS”, the “polyreactivity (PSR sort gate)” value is reported as “high polyreactivity”.
With “QFQLVESGGGLVQAGGSLRLSCAASGSTFTPYDMGWYRQAPGKERELVAVITGSDGTYYADSVKGRFTISRDNAKNTVYLQMNSLKPEDTAVYYCATDWTFGRWSTLGVEMDYWGQGTQVTVSS” the “polyreactivity (PSR sort gate)” value was “low polyreactivity”.
In the case of “QFQLVESGGGLVQAGGSLRLSCAASGSTFVWNAMGWYRPAPGKERELVAAITNDGRTNYADSVKGRFTISRDNAKNTVYLKMNSLKPEDTAVYYCNADGYNSYWWNYYWGQGTQVTVSS”, the “polyreactivity (PSR sort gate)” value is reported as “low polyreactivity”.
For “QFQLVESGGGLVQAGGSLRLSCAASGSTFYTNAMGWYRQAPGKERELVAAITSRTGSTYYADSVKGRFTISRDNAKNTVYLQMNSLKPEDTAVYYCAADIYDWGGHYEYWGQGTQVTVSS”, the “polyreactivity (PSR sort gate)” value was “high polyreactivity”.
With “QFQLVESGGGLVQAGGSLRLSCAASGSTINPNTMVWSREAPGKERELVAVISSGGSTYYADSVKGRFTISRDNATNTVYLQMNSLKPEDSAVYYCAADRGTVSYLYCPRAVYYWGQGTQVTVSS” the “polyreactivity (PSR sort gate)” value was “low polyreactivity”.
With “QFQLVESGGGLVQAGGSLRLSCAASGSTLRLNVMGWYRQAPGKERELVARISRGCSTYYADSVKGRFTISRDNAKNTVYLQMNSLKPEDTAVYYCTAQSYPCVTPYSYWGQGTQVTVSS” the “polyreactivity (PSR sort gate)” value was “low polyreactivity”.
For “QFQLVESGGGLVQAGGSLRLSCAATGSIFRGNAMGWYRQAPGKERELVAGINRAGSTKYADSVKGRFTISRDNAKNTVYLQMNSLKPEDTAVYYCAAVRYERGLWSDYWGQGTQVTVSS”, the “polyreactivity (PSR sort gate)” value was “high polyreactivity”.
In the case of “QFQLVESGGGLVQAGGSLRLSCAAYGSTLYPYEMGWYRQAPGKERELVAAIDSGGSKNYADSVKGRFTISRDNAKNTVYLQMNSLKPEDTAVYYCAADGGVAWGYGYWGQGTQVTVSS”, the “polyreactivity (PSR sort gate)” value is reported as “low polyreactivity”.
In the case of “QFQLVESGGGLVQAGGSLRLSFAPSGSTFSYYAMGWYRPAPGKERELVAAISSRGGSTYYADSVKGRFTISRYNAKNTFYFQMNCLKAEDTDVYYSAAVLRGPDPTSTYYSWGQGTQVTVSS”, the “polyreactivity (PSR sort gate)” value is reported as “high polyreactivity”.

Reference: the nanobody polyreactivity screen of Harvey et al. (2022)
